Results on five molecules are retold here after PMC9482650, “Quantitative fragmentomics allow affinity mapping of interactomes” (Nature Communications, 2022).

Broadly, the pKd is −log10 of the Kd, conventionally taken in molar units.

Common to all, as to test: holdup assay
What all share (set-up): key: below the threshold = too weak to quantify, mostly under pKd 3.1 to 4

One test concerns the target T1, ARHGAP21, Q5T5U3.
T1 sequence (Q5T5U3 45-169, limits assumed, looked up): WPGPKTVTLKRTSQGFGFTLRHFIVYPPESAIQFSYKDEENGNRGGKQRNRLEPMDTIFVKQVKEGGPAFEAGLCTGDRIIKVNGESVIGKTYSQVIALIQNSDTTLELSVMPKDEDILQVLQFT
The following applies: plain residues with an end cap or a label only (N-terminal biotin on a linker: ado-ado).

For a further test, the target named is HTRA2, O43464. The conditions noted are these: plain residues with an end cap or a label only (N-terminal biotin on a linker: ado-ado).
For a further test, the target named is T2, HTRA3, P83110.
T2 sequence (P83110 354-453, limits assumed, looked up): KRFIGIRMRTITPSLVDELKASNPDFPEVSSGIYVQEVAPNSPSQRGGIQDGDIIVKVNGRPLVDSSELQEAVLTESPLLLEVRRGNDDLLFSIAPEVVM
The conditions noted are these: plain residues with an end cap or a label only (N-terminal biotin on a linker: ado-ado).

For another test, the target named is IL16_4, Q14005. The conditions noted are these: plain residues with an end cap or a label only (N-terminal biotin on a linker: ado-ado).
For the next test, the target named is Inadl_3, Q8NI35. The conditions noted are these: plain residues with an end cap or a label only (N-terminal biotin on a linker: ado-ado).
In the next test the target is Inadl_9, Q8NI35. The following applies: plain residues with an end cap or a label only (N-terminal biotin on a linker: ado-ado).
The target in another test is LNX1_2, Q8TBB1. The following applies: plain residues with an end cap or a label only (N-terminal biotin on a linker: ado-ado).
The next test has as its target MAGI2_4, Q86UL8.
The next test addresses T3, PARD3B_1, Q8TEW8.
T3 sequence (Q8TEW8 196-299, limits assumed, looked up): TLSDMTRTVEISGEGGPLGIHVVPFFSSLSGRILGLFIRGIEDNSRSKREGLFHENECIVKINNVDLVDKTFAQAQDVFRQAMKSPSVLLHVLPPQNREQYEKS
The following applies: plain residues with an end cap or a label only (N-terminal biotin on a linker: ado-ado).

A further test addresses PTPN3, P26045. The following applies: plain residues with an end cap or a label only (N-terminal biotin on a linker: ado-ado).
Another test addresses T4, SNTG2, Q9NY99.
T4 sequence (Q9NY99 68-166, limits assumed, looked up): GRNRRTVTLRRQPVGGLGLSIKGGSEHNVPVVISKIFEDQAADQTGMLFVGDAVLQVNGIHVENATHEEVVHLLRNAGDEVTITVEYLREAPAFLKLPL
The conditions noted are these: plain residues with an end cap or a label only (N-terminal biotin on a linker: ado-ado).

A further test has as its target TJP1_2, Q07157. The conditions noted are these: plain residues with an end cap or a label only (N-terminal biotin on a linker: ado-ado).
In the next test the target is T5, MPDZ_10, O75970.
T5 sequence (O75970 1624-1722, limits assumed, looked up): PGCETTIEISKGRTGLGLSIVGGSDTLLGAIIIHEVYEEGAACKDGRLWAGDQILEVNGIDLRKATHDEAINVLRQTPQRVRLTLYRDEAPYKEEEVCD
The following applies: plain residues with an end cap or a label only (N-terminal biotin on a linker: ahx).

Another test concerns the target T6, PDZD7_3, Q9H5P4.
T6 sequence (Q9H5P4 857-944, limits assumed, looked up): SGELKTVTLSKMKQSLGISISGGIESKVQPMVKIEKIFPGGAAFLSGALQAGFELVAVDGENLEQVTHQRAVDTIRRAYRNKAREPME
The following applies: plain residues with an end cap or a label only (N-terminal biotin on a linker: ahx).

The target in the next test is T7, DFNB31_1, Q9P202.
T7 sequence (Q9P202 135-233, limits assumed, looked up): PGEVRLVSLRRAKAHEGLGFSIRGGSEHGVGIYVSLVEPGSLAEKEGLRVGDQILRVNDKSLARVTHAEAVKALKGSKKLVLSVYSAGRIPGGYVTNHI
The following applies: plain residues with an end cap or a label only (N-terminal biotin on a linker: ado-ado).

The next test addresses DLG4_1, P78352. The conditions noted are these: plain residues with an end cap or a label only (N-terminal biotin on a linker: ado-ado).
The target of another test is HTRA1, Q92743. The conditions noted are these: plain residues with an end cap or a label only (N-terminal biotin on a linker: ado-ado).
The target of a further test is Inadl_8, Q8NI35. The following applies: plain residues with an end cap or a label only (N-terminal biotin on a linker: ado-ado).
For another test, the target named is LNX1_1, Q8TBB1. The conditions noted are these: plain residues with an end cap or a label only (N-terminal biotin on a linker: ado-ado).
The next test concerns the target MAGI1_2, Q96QZ7. The following applies: plain residues with an end cap or a label only (N-terminal biotin on a linker: ado-ado).
A further test has as its target MAGI2_2, Q86UL8. The conditions noted are these: plain residues with an end cap or a label only (N-terminal biotin on a linker: ado-ado).
A further test concerns the target MAGI2_5, Q86UL8. The conditions noted are these: plain residues with an end cap or a label only (N-terminal biotin on a linker: ado-ado).
The next test deals with MAGI3_2, Q5TCQ9. The conditions noted are these: plain residues with an end cap or a label only (N-terminal biotin on a linker: ado-ado).
Another test deals with T8, PDZRN3_1, Q9UPQ7.
T8 sequence (Q9UPQ7 244-349, limits assumed, looked up): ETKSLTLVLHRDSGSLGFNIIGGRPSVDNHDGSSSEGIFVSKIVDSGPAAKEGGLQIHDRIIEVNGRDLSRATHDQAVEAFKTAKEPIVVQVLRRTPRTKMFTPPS
The conditions noted are these: plain residues with an end cap or a label only (N-terminal biotin on a linker: ado-ado).

For a further test, the target named is T9, RHPN1, Q8TCX5.
T9 sequence (Q8TCX5 508-602, limits assumed, looked up): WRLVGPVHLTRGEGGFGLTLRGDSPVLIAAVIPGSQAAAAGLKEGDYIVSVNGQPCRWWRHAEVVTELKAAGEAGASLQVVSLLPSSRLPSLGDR
The following applies: plain residues with an end cap or a label only (N-terminal biotin on a linker: ado-ado).

Another test deals with SCRIB_1, Q14160. The conditions noted are these: plain residues with an end cap or a label only (N-terminal biotin on a linker: ado-ado).
Another test deals with T10, SNTA1, Q13424.
T10 sequence (Q13424 82-180, limits assumed, looked up): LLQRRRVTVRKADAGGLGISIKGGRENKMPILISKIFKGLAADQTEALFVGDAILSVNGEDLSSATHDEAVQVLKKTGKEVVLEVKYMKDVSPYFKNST

The target in a further test is TJP2_1, Q9UDY2. The following applies: plain residues with an end cap or a label only (N-terminal biotin on a linker: ado-ado).
The next test has as its target DLG2_3, Q15700. The following applies: plain residues with an end cap or a label only (N-terminal biotin on a linker: ado-ado).
A further test has as its target LAP2, Q96RT1. The following applies: plain residues with an end cap or a label only (N-terminal biotin on a linker: ado-ado).
The target of the next test is T11, LIN7B, Q9HAP6.
T11 sequence (Q9HAP6 88-185, limits assumed, looked up): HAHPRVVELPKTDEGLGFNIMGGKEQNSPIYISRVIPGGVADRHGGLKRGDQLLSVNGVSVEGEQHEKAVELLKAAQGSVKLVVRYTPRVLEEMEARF
The following applies: plain residues with an end cap or a label only (N-terminal biotin on a linker: ado-ado).

Another test concerns the target T12, LIN7C, Q9NUP9.
T12 sequence (Q9NUP9 88-185, limits assumed, looked up): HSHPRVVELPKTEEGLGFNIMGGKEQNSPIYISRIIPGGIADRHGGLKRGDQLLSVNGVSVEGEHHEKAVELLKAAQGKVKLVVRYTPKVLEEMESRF
The conditions noted are these: plain residues with an end cap or a label only (N-terminal biotin on a linker: ado-ado).

Another test has as its target T13, MPDZ_12, O75970.
T13 sequence (O75970 1857-1958, limits assumed, looked up): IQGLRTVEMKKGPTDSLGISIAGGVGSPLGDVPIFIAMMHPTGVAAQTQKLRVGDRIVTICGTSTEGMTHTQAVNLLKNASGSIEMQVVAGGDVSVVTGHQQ
The conditions noted are these: plain residues with an end cap or a label only (N-terminal biotin on a linker: ado-ado).

The next test concerns the target PDLIM1, O00151. The conditions noted are these: plain residues with an end cap or a label only (N-terminal biotin on a linker: ado-ado).
Another test addresses SCRIB_2, Q14160. The conditions noted are these: plain residues with an end cap or a label only (N-terminal biotin on a linker: ado-ado).
The next test concerns the target ARHGEF12, Q9NZN5-2. The conditions noted are these: plain residues with an end cap or a label only (N-terminal biotin on a linker: ahx).
A further test has as its target DLG2_2, Q15700. The conditions noted are these: plain residues with an end cap or a label only (N-terminal biotin on a linker: ahx).
A further test concerns the target T14, DLG3_3, Q92796.
T14 sequence (Q92796 374-475, limits assumed, looked up): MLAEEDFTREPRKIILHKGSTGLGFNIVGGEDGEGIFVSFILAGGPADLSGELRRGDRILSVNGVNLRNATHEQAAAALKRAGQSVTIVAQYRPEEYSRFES
The following applies: plain residues with an end cap or a label only (N-terminal biotin on a linker: ahx).

The target of the next test is PARD3_3, Q8TEW0. The conditions noted are these: plain residues with an end cap or a label only (N-terminal biotin on a linker: ahx).
A further test has as its target T15, SHANK1, Q9Y566.
T15 sequence (Q9Y566 658-767, limits assumed, looked up): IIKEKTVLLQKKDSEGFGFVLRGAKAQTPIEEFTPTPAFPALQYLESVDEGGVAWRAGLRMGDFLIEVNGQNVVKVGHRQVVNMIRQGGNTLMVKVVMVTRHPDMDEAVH
The following applies: plain residues with an end cap or a label only (N-terminal biotin on a linker: ahx).

Another test concerns the target T16, SNTB1, Q13884.
T16 sequence (Q13884 107-205, limits assumed, looked up): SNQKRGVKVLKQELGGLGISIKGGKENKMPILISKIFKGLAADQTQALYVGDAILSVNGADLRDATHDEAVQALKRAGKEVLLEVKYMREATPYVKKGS
The following applies: plain residues with an end cap or a label only (N-terminal biotin on a linker: ahx).

For another test, the target named is SNX27, Q96L92. The conditions noted are these: plain residues with an end cap or a label only (N-terminal biotin on a linker: ahx).
In the next test the target is T17, SYNJ2BP, P57105.
T17 sequence (P57105 8-110, limits assumed, looked up): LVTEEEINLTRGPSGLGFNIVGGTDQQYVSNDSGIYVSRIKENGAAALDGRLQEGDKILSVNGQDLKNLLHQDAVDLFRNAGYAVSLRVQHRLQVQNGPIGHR
The conditions noted are these: plain residues with an end cap or a label only (N-terminal biotin on a linker: ahx).

Setting [1] is: plain residues with an end cap or a label only (N-terminal biotin on a linker: ado-ado).
Where [2] appears, read: plain residues with an end cap or a label only (N-terminal biotin on a linker: ahx).

Sequence of HTRA1, Q92743 (Q92743 360-477): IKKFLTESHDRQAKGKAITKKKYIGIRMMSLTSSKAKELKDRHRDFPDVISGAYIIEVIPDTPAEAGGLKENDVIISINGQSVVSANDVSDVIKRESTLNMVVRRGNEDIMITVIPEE
Sequence of MAGI2_4, Q86UL8 (Q86UL8 772-865): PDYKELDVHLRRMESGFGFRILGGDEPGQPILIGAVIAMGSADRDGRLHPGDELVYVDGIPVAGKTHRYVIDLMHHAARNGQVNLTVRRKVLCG
Sequence of MAGI2_5, Q86UL8 (Q86UL8 915-1017): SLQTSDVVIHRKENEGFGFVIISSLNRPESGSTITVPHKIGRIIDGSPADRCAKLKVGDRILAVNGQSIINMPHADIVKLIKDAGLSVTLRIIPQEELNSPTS
Sequence of Inadl_9, Q8NI35 (Q8NI35 1530-1615): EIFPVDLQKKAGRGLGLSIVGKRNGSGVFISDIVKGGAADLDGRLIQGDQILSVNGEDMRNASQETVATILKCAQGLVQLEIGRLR
Sequence of DLG4_1, P78352 (P78352 62-152): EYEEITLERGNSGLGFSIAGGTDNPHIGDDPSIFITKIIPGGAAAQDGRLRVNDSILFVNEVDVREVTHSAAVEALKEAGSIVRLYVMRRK
Sequence of MAGI1_2, Q96QZ7 (Q96QZ7 456-580): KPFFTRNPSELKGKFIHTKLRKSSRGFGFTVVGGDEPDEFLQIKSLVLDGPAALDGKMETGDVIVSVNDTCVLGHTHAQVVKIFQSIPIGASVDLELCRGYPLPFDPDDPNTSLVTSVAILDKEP
Sequence of SCRIB_1, Q14160 (Q14160 718-814): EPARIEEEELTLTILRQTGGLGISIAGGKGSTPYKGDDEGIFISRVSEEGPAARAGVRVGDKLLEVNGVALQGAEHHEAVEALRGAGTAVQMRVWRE
Sequence of PARD3_3, Q8TEW0 (Q8TEW0 582-685): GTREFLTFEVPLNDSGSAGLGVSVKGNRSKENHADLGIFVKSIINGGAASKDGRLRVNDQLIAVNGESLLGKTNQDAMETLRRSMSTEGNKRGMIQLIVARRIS
Sequence of LNX1_1, Q8TBB1 (Q8TBB1 261-371): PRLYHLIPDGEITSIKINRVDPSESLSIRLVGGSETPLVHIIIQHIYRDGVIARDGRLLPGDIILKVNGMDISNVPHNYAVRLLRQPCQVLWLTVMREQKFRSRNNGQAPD
Sequence of LNX1_2, Q8TBB1 (Q8TBB1 371-470): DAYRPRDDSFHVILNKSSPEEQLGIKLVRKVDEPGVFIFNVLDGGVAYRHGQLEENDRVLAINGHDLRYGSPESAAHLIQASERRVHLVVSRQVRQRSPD
Sequence of PDLIM1, O00151 (O00151 1-87): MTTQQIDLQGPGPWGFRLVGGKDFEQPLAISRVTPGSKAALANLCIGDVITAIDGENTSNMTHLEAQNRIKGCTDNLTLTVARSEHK
Sequence of MAGI3_2, Q5TCQ9 (Q5TCQ9 398-503): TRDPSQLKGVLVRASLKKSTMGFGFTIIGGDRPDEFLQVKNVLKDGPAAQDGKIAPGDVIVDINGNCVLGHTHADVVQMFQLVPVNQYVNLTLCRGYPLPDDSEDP
Sequence of TJP2_1, Q9UDY2 (Q9UDY2 24-128): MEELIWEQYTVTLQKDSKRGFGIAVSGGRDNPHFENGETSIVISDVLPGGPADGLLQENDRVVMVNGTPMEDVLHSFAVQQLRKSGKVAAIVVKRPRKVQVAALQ
Sequence of SCRIB_2, Q14160 (Q14160 857-960): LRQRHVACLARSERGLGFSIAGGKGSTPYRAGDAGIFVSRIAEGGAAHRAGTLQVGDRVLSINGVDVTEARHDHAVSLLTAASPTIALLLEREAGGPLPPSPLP
Sequence of ARHGEF12, Q9NZN5-2 (Q9NZN5 other isoform, or with tags, fused parts or gaps): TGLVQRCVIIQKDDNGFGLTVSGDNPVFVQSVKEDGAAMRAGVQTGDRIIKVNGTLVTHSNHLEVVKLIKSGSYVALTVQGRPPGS
Sequence of MAGI2_2, Q86UL8 (Q86UL8 410-522): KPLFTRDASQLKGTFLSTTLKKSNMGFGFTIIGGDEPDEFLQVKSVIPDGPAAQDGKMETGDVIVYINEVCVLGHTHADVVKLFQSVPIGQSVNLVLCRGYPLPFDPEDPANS
Sequence of Inadl_8, Q8NI35 (Q8NI35 1425-1530): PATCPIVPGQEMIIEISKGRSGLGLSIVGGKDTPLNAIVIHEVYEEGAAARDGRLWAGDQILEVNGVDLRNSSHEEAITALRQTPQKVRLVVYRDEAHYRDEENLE
Sequence of HTRA2, O43464 (O43464 355-458): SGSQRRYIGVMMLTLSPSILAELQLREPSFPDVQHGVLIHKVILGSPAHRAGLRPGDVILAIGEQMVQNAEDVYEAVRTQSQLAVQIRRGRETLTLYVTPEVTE
Sequence of LAP2, Q96RT1 (Q96RT1 other isoform, or with tags, fused parts or gaps): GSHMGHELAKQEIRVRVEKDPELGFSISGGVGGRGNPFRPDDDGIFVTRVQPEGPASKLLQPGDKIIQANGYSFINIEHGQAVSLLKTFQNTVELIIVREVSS
Sequence of TJP1_2, Q07157 (Q07157 181-274): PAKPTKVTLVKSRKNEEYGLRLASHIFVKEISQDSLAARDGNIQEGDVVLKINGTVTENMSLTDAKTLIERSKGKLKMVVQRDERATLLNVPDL
Sequence of IL16_4, Q14005 (Q14005 1229-1329): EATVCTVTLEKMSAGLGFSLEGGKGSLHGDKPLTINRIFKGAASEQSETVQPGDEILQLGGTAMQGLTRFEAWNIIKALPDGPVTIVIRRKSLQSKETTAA
Sequence of PTPN3, P26045 (P26045 505-587): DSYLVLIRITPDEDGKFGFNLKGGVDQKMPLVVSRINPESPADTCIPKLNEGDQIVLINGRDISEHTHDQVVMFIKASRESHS
Sequence of Inadl_3, Q8NI35 (Q8NI35 359-469): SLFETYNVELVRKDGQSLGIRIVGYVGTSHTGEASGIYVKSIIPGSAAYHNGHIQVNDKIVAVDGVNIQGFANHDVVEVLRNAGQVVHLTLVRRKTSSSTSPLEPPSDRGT

As for VYPNAKVELV [PDLIM4_iso2, P50479], the pKd in the test with ARHGAP21, Q5T5U3 was determined as 3.8; with HTRA2, O43464, 3.69; with HTRA3, P83110, 3.62; with IL16_4, Q14005, 3.83; in the test with Inadl_3, Q8NI35, 3.54; in the test with Inadl_9, Q8NI35 it was 3.57. The pKd with LNX1_2, Q8TBB1 was 3.54; with MAGI2_4, Q86UL8 (setting [1]) it was 3.56; in the test with PARD3B_1, Q8TEW8, 3.6; in the test with PTPN3, P26045, 3.87; with SNTG2, Q9NY99, 3.48; in the test with TJP1_2, Q07157 it was 3.52.

For PSASCAVTAA [PDLIM4, P50479], the pKd is 3.76 with MPDZ_10, O75970 and 3.48 with PDZD7_3, Q9H5P4.

LPAHHNATRL [SLC34A1, Q06495]: the negative logarithm of the Kd (pKd) stood at 3.73 with DFNB31_1, Q9P202; 3.51 with DLG4_1, P78352; 3.73 in the test with HTRA1, Q92743; 3.52 in the test with Inadl_8, Q8NI35; 3.72 with LNX1_1, Q8TBB1; 3.8 with MAGI1_2, Q96QZ7. Also, the pKd came to 3.87 with MAGI2_2, Q86UL8; 3.69 in the test with MAGI2_5, Q86UL8; 3.69 with MAGI3_2, Q5TCQ9; 3.77 with PDZRN3_1, Q9UPQ7; 3.82 with RHPN1, Q8TCX5; 3.82 with SCRIB_1, Q14160. Besides, the pKd with SNTA1, Q13424 (setting [1]) turned out to be 3.71; in the test with TJP2_1, Q9UDY2, 3.54.

Take YLEPVLSSEL [ATP2A2, P16615]: the negative logarithm of the Kd (pKd) with DLG2_3, Q15700 is 3.66; with HTRA1, Q92743, 3.62; in the test with LAP2, Q96RT1 it was 3.53; with LIN7B, Q9HAP6 it was 3.83; with LIN7C, Q9NUP9 it was 3.8; with MPDZ_12, O75970, 3.55. In addition, the pKd with PDLIM1, O00151 stood at 3.48; with PDZRN3_1, Q9UPQ7, 3.7; with SCRIB_2, Q14160, 3.56.

Turning to LSDPSVSTVV [GRIN1, Q05586], the pKd was 3.71 in the test with ARHGEF12, Q9NZN5-2; 3.71 with DLG2_2, Q15700; 3.57 with DLG3_3, Q92796; 3.83 with MAGI2_4, Q86UL8 (setting [2]); 3.56 with PARD3_3, Q8TEW0; 3.72 with SHANK1, Q9Y566. Moreover, the pKd with SNTA1, Q13424 (setting [2]) is 3.68; with SNTB1, Q13884, 3.55; in the test with SNX27, Q96L92, 3.61; in the test with SYNJ2BP, P57105, 3.72.
